This note sets out measurements from publication PMC9324360.

Assay in all cases: MST
Settings in all cases: 0.5 mM Mg2+; MST: 10 mM Tris-HCl pH 8.5, 0.5 mM MgSO4, 50 mM KCl, 10 mM (NH4)2SO4, 0.05% Tween 20; 1 nM oligo; 10 min at 55 °C, measured at 25 °C

Series [1] has as its system Tt72 DNA polymerase WT (Thermus thermophilus MAT72 phage vB_Tt72).
The subject of series [2] is Tt72 pol D15A (Thermus thermophilus MAT72 phage vB_Tt72).
In series [3] the test system is Tt72 pol D184A (Thermus thermophilus MAT72 phage vB_Tt72).
The test system of series [4] is Tt72 pol D78A (exo-) (Thermus thermophilus MAT72 phage vB_Tt72).
In series [5] the test system is Tt72 pol D78A/D384A (Thermus thermophilus MAT72 phage vB_Tt72).
For series [6], the system named is Tt72 pol D78A/D615A (Thermus thermophilus MAT72 phage vB_Tt72).
Series [7] concerns Tt72 pol D78A/E389A (Thermus thermophilus MAT72 phage vB_Tt72).
Series [8] deals with Tt72 pol D78A/S616A (Thermus thermophilus MAT72 phage vB_Tt72).
The subject of series [9] is Tt72 pol E17A (Thermus thermophilus MAT72 phage vB_Tt72).
In series [10] the test system is Tt72 pol L27A (Thermus thermophilus MAT72 phage vB_Tt72).
The subject of series [11] is Tt72 pol Y180A (Thermus thermophilus MAT72 phage vB_Tt72).

For the sequence “TGGCTGCTTCTAAGCCAACATCCT / CTAGTGAGGATGTTGGCTTAGAAGCAGCCA [polTt72-Cy5/polTt72-long primer/template]”, the Kd (commonly a measure of binding affinity in units of concentration) in series [1] amounted to 2 nM; in series [2] it was 232 nM; in series [3] it was 144 nM; in series [4], 109 nM; in series [5], 100 nM; in series [6] it was 78 nM. Besides, the Kd amounted to 68 nM in series [7]; 129 nM in [8]; 529 nM in series [9]; 32 nM in series [10]; 229 nM in series [11].
